Here are results for four substances from patent US20020137684A1, “Ligand for enhancing oral and CNS delivery of biological agents” (priority 2000, published 2002).

Where no end group is shown, it is not given here. [ ]: non-standard residue; d: D form. TAMRA = carboxytetramethylrodamine

For series [1], the system named is Caco-2 monolayers. As to the kind of experiment: Transport of peroxidase conjugate across Caco-2 monolayers. The note with it: 25 µg/ml apical, peroxidase activity. The protocol:
A two-chamber Caco-2 model was used to evaluate the transport of a conjugate comprising peroxidase and a peptide comprising an amino acid sequence of SEQ. ID. NO.:1 across the intestinal barrier (IB) in vitro. […] The medium containing isotope-labeled compound, the SEQ. ID. NO.:1-Peroxidase conjugate ([…]) or Control Peroxidase conjugate ([…]) was added to the apical side of cultured Caco-2 monolayers.

Series [2] concerns Caco-2 monolayers. As to the kind of experiment: Inhibition of phage transport across Caco-2 monolayers by SEQ. ID. NO.:1-Peroxidase conjugate. The note with it: 50 μg/ml conjugate, 3 hours.
Procedure: The cell monolayers on the insert filter apically and basolaterally were rinsed twice on each side with PBS and pre-incubated with pre-warmed D-MEM for 30 min. The medium in apical chamber was gently removed. […] The inserts were transferred to the new chamber. ^3H-Manitol was used as a probe to monitor Caco-2 monolayer leakiness. The medium containing isotope-labeled compound, a phage that expresses a peptide comprising an amino acid sequence of SEQ. […] NO.:4 (5×10^9 cfu/ml) or wild-type phage (Control phage 1.5×10^9 cfu/ml) in the presence and absence of 50 μg/ml of SEQ. […] NO.:1-Peroxidase conjugate was added to the apical side. After 3 hours incubation, the media from apical and basolateral sides of the chamber was collected and used to determine the phage and ^3H-manitol transport across Caco-2 monolayers. The relative transport of compounds in % through Caco-2 was calculated as:
where Cb is a concentration of compound in basolateral chamber, Ca is a concentration of compound in the apical chamber, Vb is a volume of media in basolateral chamber and Va is a volume of media in the apical chamber. The transport of phage that expresses a peptide comprising an amino acid sequence of SEQ. […] NO.:4, or peptide SEQ. […] NO.:1-Peroxidase conjugate was detected.
Series [3] has as its system Caco-2 monolayers. Description: Transport of peptides across Caco-2 monolayers (Transwell, fluorescence). Type of series: in vitro ADME, human. The note with it: 50 micromol/L apical. As to the method:
The desired numbers of Transwell (6.5mm diameter, 0.4 μm pore size) were placed in the wells of the tissue culture plates. The filters were wetted with medium (0.1 ml to the apical and 0.6 ml to the basolateral sides of Transwell) for 30 min in the CO2 incubator before the harvest of the cells from the flasks. The cells were re-suspended in the medium 5×10^5 cells/ml and 0.2 ml of cell suspension medium was added to the apical side of the Transwell and cultured in the CO2 incubator. The medium was changed every second day for 8-12 days to obtain well-differentiated monolayers suitable for transport experiences.
The medium in apical chamber was gently removed. […] The inserts were transferred to the new chamber. […] Peptide SEQ. ID. NO.: 2, or SEQ. ID.
The concentration of peptide in sample was determined by the fluorescence of the sample using excitation 530 nm, emission 590 nm. The concentration of dextran in samples was determined by the fluorescence of the sample using excitation 480 nm, emission 530 nm.

The subject of the next series is CACO 2 cells. As to the kind of experiment: Digestion of peptide in apical chamber of Caco-2 cells (HPLC). It is filed as in vitro ADME, human. As to the method: Digestion of peptide SEQ. ID. NO.:2 in apical chamber was determined using HPLC. The samples were diluted 100 times with the media, and 0.200 mL of each was injected on a column RP-HPLC column Vydac 218TP54, pre equilibrated 15 minutes with 5 acetonitroile/water (10 mM phosphoric acid) at flow rate 1 mL per minute. Sample was eluted with two component gradient 1% per minute of acetonitrole (10 mM phosphoric acid)/water (10 mM phosphoric acid) at flow rate 1 mL per minute. Fluorescent detection was used with excitation wavelength 555 nm and emission wavelength 580 nm. The peptide SEQ. ID. NO.: 2 was eluted as sharp peak at 22.3 min. The percentage of remaining peptide was calculated as: […]
where A—area under the peak at 22.3 min, SUM(Ai)—the sum of area of all peaks eluted between 13 and 26 minutes.

As to “SEQ. ID. NO.:1-Peroxidase Conjugate (Ac-CRVLDGDRTRWG; also: peroxidase conjugate)”, the “Transport through Caco-2 monolayers, P, %” value was 0.35 ± 0.014% with Caco-2 monolayers [1] (2 hours) and 0.705 ± 0.09% with Caco-2 monolayers [1] (4 hours). Besides, the “inhibition of transport of SEQ. ID. NO.:4 phage across Caco-2 monolayers” value with Caco-2 monolayers [2] is “completely inhibited”.

As for dextran [reference compound], the “Transport [%]” value amounted to 0.05% in the series with Caco-2 monolayers [3] (0.5 h), 0.16% with Caco-2 monolayers [3] (1.0 h), 0.63% in the series on Caco-2 monolayers [3] (2.0 h) and 0.38% with Caco-2 monolayers [3] ([…]).

On to “tamra-Ala-Ser-Ala-Arg-Val-Leu-Asp-Gly-Asp-Arg-Thr-Arg-Trp-Gly-NH2 ({TAMRA}-ASARVLDGDRTRWG-NH2) [SEQ. ID. NO.: 2]”, for which the “Transport [%]” value with Caco-2 monolayers [3] (0.5 h) is reported as 0.22%; in the series on Caco-2 monolayers [3] (1.0 h), 0.16%; in the series with Caco-2 monolayers [3] (2.0 h), 1.23%; in the series on Caco-2 monolayers [3] ([…]), 0.71%. In addition, the “Remaining peptide [%]” value is 86% in the series with CACO 2 cells (0.5 h incubation with CACO 2 cells), 84% with CACO 2 cells (1 h incubation with CACO 2 cells) and 63% in the series with CACO 2 cells (2 h incubation with CACO 2 cells).

For “tamra-D-Ala-D-Ser-D-Ala-D-Arg-D-Val-D-Leu-D-Asp-D-Gly-D-Asp-D-Arg-D-Thr-D-Arg-D-Trp-D-Gly-NH2 ({TAMRA}-[dA][dS][dA][dR][dV][dL][dD]G[dD][dR][dT][dR][dW]G-NH2) [SEQ. ID. NO. 3]”, the “Transport [%]” value is listed as 0.06% with Caco-2 monolayers [3] (0.5 h), 0.43% with Caco-2 monolayers [3] (1.0 h), 1.03% in the series on Caco-2 monolayers [3] (2.0 h) and 0.30% with Caco-2 monolayers [3] ([…]).
